{"source": "patent US20030023055", "key": {"[1]": {"biological_target": "PHAS-1"}, "[2]": {"biological_target": "myelin basic protein"}, "[3]": {"biological_target": "histone H1"}}, "data": [{"protein": "FLAG®-tagged Atr-2 protein (73 kDa Atr-2 truncated protein encoded by pCIneoFLAGATR2) (protein) MLVAELRRVTVLWDELWLGVLLQQHMYVLRRIQQLEDEVKRVQNNNTLRKEEKIAIMREKHTALMKPIVFALEHVRSITAAPAETPHEKWFQDNYGDAIENALEKLKTPLNPAKPGSSWIPFKEIMLSLQQRAQKRASYILRLEEISPWLAAMTNTEIALPGEVSARDTVTIHSVGGTITILPTKTKPKKLLFLGSDGKSYPYLFKGLEDLHLDERIMQFLSIVNTMFATINRQETPRFHARHYSVTPLGTRSGLIQWVDGATPLFGLYKRWQQREAALQAQKAQDSYQTPQNPGIVPRPSELYYSKIGPALKTVGLSLDVSRRDWPLHVMKAVLEELMEATPPNLLAKELWSSCTTPDEWWRVTQSYARSTAVMSMVGYIIGLGDRHLDNVLIDMTTGEVVHIDYNVCFEKGKSLRVPEKVPFRMTQNIETALGVTGVEGVFRLSCEQVLHIMRRGRETLLTLLEAFVYDPLVDWTAGGEAGFAGAVYGGGGQQAESKQSKREMEREITRSLFSSRVAEIKVNWFKNRDEMLVVLPKLDGSLDEYLSLQEQLTDVEKLQGKLLEEIEFLEGAEGVDHPSHTLQHRYSEHTQLQTQQRAVQEAIQVKLNEFEQWITHYQAAFNNLEATQLASLLQEISTQMDLGPPSYVPA", "values": [{"measurement": "kinase activity (32P-ATP incorporation, P81 paper, Cerenkov radiation)", "setting": "[1]", "result": "did not phosphorylate PHAS-1 or histone H1"}, {"measurement": "kinase activity (32P-ATP incorporation, P81 paper, Cerenkov radiation)", "setting": "[2]", "result": "able to phosphorylate the Atr-2 protein itself and the exogenous myelin basic protein substrate"}, {"measurement": "kinase activity (32P-ATP incorporation, P81 paper, Cerenkov radiation)", "result": "able to phosphorylate the Atr-2 protein itself"}, {"measurement": "kinase activity (32P-ATP incorporation, P81 paper, Cerenkov radiation)", "setting": "[3]", "result": "did not phosphorylate PHAS-1 or histone H1"}]}]}
